{
  "source": "patent US7732133B2",
  "about": "“Screening methods for biologically active ligands” (Chugai Seiyaku Kabushiki Kaisha, priority 2000, dated 2010)",
  "key": {"[1]": {"target": "T1, chimeric leptin receptor (human leptin receptor extracellular domain / mouse G-CSF receptor) in Ba/F3 cell line LPG (Homo sapiens, UniProt P48357)", "T1 construct": "from the 1st to the 839th amino acid residues; expressed in transfected cells; host or cells: mouse Ba/F3 cells, clone LPG#51 = LPG", "T1 sequence (P48357 22-839)": "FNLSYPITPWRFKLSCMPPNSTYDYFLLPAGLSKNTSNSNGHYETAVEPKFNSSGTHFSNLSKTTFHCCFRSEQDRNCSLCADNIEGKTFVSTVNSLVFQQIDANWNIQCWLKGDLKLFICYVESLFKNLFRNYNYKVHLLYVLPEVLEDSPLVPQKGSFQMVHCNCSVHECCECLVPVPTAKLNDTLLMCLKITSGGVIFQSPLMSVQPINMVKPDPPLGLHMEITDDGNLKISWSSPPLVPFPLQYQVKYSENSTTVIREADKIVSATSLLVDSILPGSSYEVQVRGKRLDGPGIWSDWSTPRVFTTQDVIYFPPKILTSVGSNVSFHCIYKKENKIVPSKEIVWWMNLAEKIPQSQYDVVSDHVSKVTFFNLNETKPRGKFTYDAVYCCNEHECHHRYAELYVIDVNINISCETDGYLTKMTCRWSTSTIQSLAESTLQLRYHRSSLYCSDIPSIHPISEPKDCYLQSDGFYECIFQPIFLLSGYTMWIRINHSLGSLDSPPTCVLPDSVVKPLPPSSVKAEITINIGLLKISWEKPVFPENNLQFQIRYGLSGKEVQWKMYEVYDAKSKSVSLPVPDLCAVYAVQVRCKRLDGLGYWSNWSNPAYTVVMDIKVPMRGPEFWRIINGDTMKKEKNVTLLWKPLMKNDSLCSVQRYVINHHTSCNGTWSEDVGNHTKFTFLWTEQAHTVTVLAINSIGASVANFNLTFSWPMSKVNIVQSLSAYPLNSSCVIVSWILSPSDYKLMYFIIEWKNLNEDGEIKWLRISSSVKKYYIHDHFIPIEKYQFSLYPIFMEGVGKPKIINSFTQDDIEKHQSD", "experiment": "Growth response of chimeric leptin receptor-expressing Ba/F3 cell line LPG (WST-8)", "format": "cell-based", "conditions": "72 hours culture, WST-8 absorbance", "excerpt": "A chimeric receptor cDNA was constructed by linking cDNA fragments encoding the extracellular domain (from the 1st to the 839th amino acid residues; Tartaglia, L A. et al. (1995) Cell, 83, 1263-1271) of human leptin receptor, and the transmembrane and intracellular domains (from the 602nd to the 813th amino acid residues; Fukunaga, R. et al. (1990) Cell 61, 341-350) of mouse G-CSF receptor. This cDNA was inserted downstream of the HEF1α promoter of the mammalian expression vector pCV to construct chimeric receptor expression vector pCV-cLepR. pCV-cLepR was linearized with Pvu I (Takara Shuzo), extracted with phenol and chloroform, and purified by ethanol precipitation. […]\n(§1) The cells were washed twice with Media A, and were suspended in Media A to give a cell density of 5×10^4 cells/mL. […] After the culture, 10 μL/well WST-8 reagent (Cell Count Reagent SF; Nacalai Tesque) was added, and pre-reaction absorbance at a measurement wavelength of 450 nm and a control wavelength of 655 nm was measured using microplate reader (Model 3550, Bio Rad). The plate was incubated for two hours in a CO2 incubator (CO2 concentration, 5%), and post-reaction absorbance was measured as above. […]"}, "[2]": {"target": "T2, chimeric LIF receptor (human LIF receptor and human gp130 / mouse G-CSF receptor) in Ba/F3 cell line LIG (Homo sapiens, UniProt P40189+P42702)", "T2 construct": "from the 1st to the 833rd amino acid residues; expressed in transfected cells; host or cells: mouse Ba/F3 cells co-transfected with pCV-cLIFR and pCV-cgp130, clone LIG#47 = LIG", "T2 sequence (P42702 45-833)": "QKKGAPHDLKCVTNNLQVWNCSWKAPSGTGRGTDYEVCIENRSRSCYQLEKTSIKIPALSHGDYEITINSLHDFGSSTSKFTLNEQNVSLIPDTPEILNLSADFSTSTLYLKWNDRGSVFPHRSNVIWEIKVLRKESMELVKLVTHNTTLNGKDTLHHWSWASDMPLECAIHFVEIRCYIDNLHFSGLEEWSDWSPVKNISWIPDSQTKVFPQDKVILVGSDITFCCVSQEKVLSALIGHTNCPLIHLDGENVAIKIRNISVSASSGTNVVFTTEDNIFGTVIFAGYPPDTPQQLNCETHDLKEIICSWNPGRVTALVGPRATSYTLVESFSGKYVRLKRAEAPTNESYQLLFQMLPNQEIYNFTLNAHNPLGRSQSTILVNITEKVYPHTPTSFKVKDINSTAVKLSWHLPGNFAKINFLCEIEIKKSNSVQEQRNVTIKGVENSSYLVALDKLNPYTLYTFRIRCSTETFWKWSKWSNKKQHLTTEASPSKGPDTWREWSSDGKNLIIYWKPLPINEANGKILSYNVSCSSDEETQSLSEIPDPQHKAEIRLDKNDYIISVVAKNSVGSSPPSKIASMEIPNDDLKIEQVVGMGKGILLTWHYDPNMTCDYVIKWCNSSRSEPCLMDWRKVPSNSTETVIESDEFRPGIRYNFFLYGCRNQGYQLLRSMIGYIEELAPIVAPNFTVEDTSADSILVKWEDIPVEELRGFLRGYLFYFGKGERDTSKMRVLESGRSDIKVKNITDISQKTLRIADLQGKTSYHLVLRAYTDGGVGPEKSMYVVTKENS", "T2 sequence (P40189 23-619)": "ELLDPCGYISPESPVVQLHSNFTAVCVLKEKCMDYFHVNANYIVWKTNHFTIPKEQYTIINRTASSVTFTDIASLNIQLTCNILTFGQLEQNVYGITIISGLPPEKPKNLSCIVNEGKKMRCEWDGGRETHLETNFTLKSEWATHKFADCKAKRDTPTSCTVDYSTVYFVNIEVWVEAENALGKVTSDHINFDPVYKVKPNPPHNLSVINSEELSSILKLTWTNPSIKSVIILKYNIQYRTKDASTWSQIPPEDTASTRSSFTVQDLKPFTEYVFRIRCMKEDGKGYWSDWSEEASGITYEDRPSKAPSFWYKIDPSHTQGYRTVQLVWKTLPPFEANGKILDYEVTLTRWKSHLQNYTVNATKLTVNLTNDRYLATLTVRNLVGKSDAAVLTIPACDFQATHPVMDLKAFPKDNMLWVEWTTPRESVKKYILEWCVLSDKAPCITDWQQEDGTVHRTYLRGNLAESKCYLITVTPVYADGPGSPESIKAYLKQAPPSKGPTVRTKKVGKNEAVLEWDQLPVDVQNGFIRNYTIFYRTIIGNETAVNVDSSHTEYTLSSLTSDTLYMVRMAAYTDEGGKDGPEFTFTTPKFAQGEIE", "T2 sequence (P40223 627-837 partner limits assumed)": "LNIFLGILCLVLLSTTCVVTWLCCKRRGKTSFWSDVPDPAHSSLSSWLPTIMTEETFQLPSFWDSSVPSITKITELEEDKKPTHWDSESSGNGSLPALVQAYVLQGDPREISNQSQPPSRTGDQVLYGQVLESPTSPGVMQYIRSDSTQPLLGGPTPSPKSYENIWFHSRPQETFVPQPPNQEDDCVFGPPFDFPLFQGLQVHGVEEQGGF", "experiment": "Growth response of chimeric LIF receptor-expressing Ba/F3 cell line LIG (WST-8)", "format": "cell-based", "conditions": "72 hours culture, WST-8 absorbance", "excerpt": "Chimeric receptor DNAs were constructed by linking cDNA fragments encoding human LIF receptor (from the 1st to the 833rd amino acid residues; Gearing, D P. et al. […] EMBO J., 10, 2839-2848) and human gp130 (from the 1st to the 619th amino acid residues; Hibi, M. et al. (1990) Cell, 63, 1149-1157) with the transmembrane and intracellular domains (from the 602nd to the 813th amino acid residues; Fukunaga, R. et al. (1990) Cell 61, 341-350) of mouse G-CSF receptor, respectively. These constructs were inserted downstream of the HEF1α promoter of the mammalian expression vector pCV to construct chimeric receptors expression vectors, pCV-cLIFR and pCV-cgp130, respectively. pCV-cLIFR and pCV-cgp130 were linearized with Pvu I (Takara Shuzo), respectively, extracted with phenol and chloroform, and purified by ethanol precipitation. […]\nas §1"}, "[3]": {"tested_on": "mixed culture of cell lines GFG, EPG, TPG and parental Ba/F3", "experiment": "Cytokine responses in mixed and individual cell cultures (Example 2)", "format": "cell-based, mouse", "conditions": "mixed culture of four cell lines (each 4×10^3 cells/well), similar in individual cultures, 72 hours, WST-8; listed as hEPO", "experimental": "Mixed culture of the cell lines GFG, EPG, and TPG, which express human G-CSF, EPO, and TPO chimeric receptors, respectively, and their parental cell line Ba/F3 was conducted and their response to various cytokines was examined.\nThe cells were washed twice with RPMI1640 media containing 2% fetal bovine serum, and then were suspended in RPMI1640 containing 10% fetal bovine serum. The four cell lines were mixed by adjusting each of the cell lines to 4×10^4 cells/mL (16×10^4 cells/mL in total) for the mixed culture, and, for individual cultures, cells were prepared at 4×10^4 cells/mL. 100 μL each of the cells were independently seeded on a 96-well microtiter plate (flat bottom, Falcon). After adding 100 μL/well each of appropriately diluted cytokines, the cultures were cultured for 72 hours in a CO2 incubator (5% CO2 concentration). After the culture, 10 μL/well WST-8 reagent (Cell Count Reagent SF; Nacalai Tesque) was added, and pre-reaction absorbance at a measurement wavelength of 450 nm and a control wavelength of 655 nm was measured using a microplate reader (Model 3550, Bio Rad). The plate was incubated for two hours in a CO2 incubator (CO2 concentration, 5%), and post-reaction absorbance was measured as above. Data were graphed out taking the cytokine concentrations on the horizontal axis and the amount of changes in absorbance after 2-hour incubation on the vertical axis (FIGS. 18, 19, and 20)."}, "[4]": {"experiment": "Titer of human EPO and G-CSF prepared from recombinant CHO cells"}},
  "data": [
    {"substance": "human leptin: human leptin (Genzyme)", "values": [
      {"measurement": "concentration at which an evident growth reaction was observed", "setting": "[1]", "value": "≥ 0.2", "unit": "ng/mL"}
    ]},
    {"substance": "human LIF: human leukemia inhibitory factor (Genzyme)", "values": [
      {"measurement": "concentration at which an evident growth reaction was observed", "setting": "[2]", "value": "≥ 0.4", "unit": "ng/mL"}
    ]},
    {"substance": "erythropoietin [human EPO]", "values": [
      {"measurement": "concentration where the response was observed to start", "setting": "[3]", "value": 2, "unit": "pg/mL"},
      {"measurement": "titer", "setting": "[4]", "value": "270,000 IU/mg"}
    ]}
  ]
}
